The target in test [1] is T1, human CD70 on CD70 positive cell lines (human, UniProt P32970 1-193).
T1 sequence (looked up): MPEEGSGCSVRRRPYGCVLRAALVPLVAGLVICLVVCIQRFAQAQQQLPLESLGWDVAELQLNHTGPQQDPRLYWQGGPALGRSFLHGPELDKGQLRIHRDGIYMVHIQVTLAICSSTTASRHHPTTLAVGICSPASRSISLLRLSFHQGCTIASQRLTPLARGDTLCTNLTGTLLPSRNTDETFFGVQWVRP
Briefly: cell-based or functional assay.

Test [2] concerns the target T1, human CD70 on CD70 positive cell lines. Briefly: saturation binding of europium-labelled antibody to CD70+ 786-O cells (apparent KD). From the text: (§1) Humanized 1F6 antibody derivatives HDLA (hVHD and hVLA), HHLA (hVHH and hVLA), and HJLA (hVHJ and hVLA), and c1F6 were transiently expressed in 293 cells, labeled with europium using the Eu-N1 iodoacetamido chelate (Perkin Elmer), and analyzed for saturation binding to a panel of CD70 positive cell lines as described in detail in U.S. Patent Application No. 60/673,070, filed Apr. 19, 2005; and PCT International Publication No. WO 2006/113909.

Test [3] shares this target. Briefly: saturation binding of europium-labelled antibody to CD70+ ACHN cells (apparent KD).
From the text: as §1

The target is the same in test [4]. The experiment in a line: saturation binding of europium-labelled antibody to CD70+ Caki-2 cells (apparent KD).
From the text: as §1

Test [5] has the same target. The experiment in a line: saturation binding of europium-labelled antibody to CD70+ Caki-1 cells (apparent KD).
From the text: as §1

Test [6] has as its target T2, human FcγRI, full length on stably transfected CHO cells (human, UniProt P12314 16-374).
T2 construct: whole, on cells; also called CD64; Fcγ receptor I
The experiment in a line: cell-based competition binding, flow cytometry (LSRII): serial dilutions of unlabelled competitor against 50 nM Alexa Fluor 488-labelled h1F6 IgG1 on CHO cells expressing human FcγRI. On the procedure:
Labeled cells were detected using an LSRII FACS analyzer.
(§2) Binding of humanized anti-CD70 (h1F6) antibody to CHO cells expressing full-length FcγRI was determined by competition binding. […] Labeled cells were detected using an LSRII FACS analyzer.

Test [7] has as its target T1, human CD70 on CD70 positive cell lines. Briefly: 786-O cell binding; IC50 of the vcF2 conjugate over IC50 of the unconjugated IgG.
Test [8] shares this target. Briefly: 786-O cell binding, apparent KD of the IgG.
Test [9] addresses T3, human FcγRIIIa, 158V (high affinity), full length on stably transfected CHO cells (human, UniProt P08637 17-254).
T3 construct: whole, on cells; CHO DG44 line '158V'; also called CD16
Briefly: cell-based competition binding on CHO cells expressing full-length FcγRIIIa, 'performed as described previously' (158V line, 100 nM Alexa Fluor 488-labelled h1F6 IgG1); the sheet says only FcγRIIIA. The method, then:
Binding of variant humanized anti-CD70 (h1F6) antibodies to CHO cells expressing full-length FcγRIIIa was also determined by competition binding. […] Labeled cells were detected using an LSRII FACS analyzer.
(§3) Binding of one of the variants, IgG1 S239C, to CHO cells expressing full-length FcγRIIIa and FcγRI was determined as described above. […] The control, parent antibody h1F6, binds to FcγRIIIa-expressing cells and FcγRI-expressing cells.

For test [10], the target named is T2, human FcγRI, full length on stably …. The experiment in a line: cell-based competition binding on CHO cells expressing full-length FcγRI, 'performed as described previously' (50 nM Alexa Fluor 488-labelled h1F6 IgG1). The method, then:
as §2, §3

The source of these data is patent US20240084031A1 (Seagen, published 2024).

Where a chain is given by its changes, count along the chain named. Numbers in names are those of the source.

T2 sequence (P12314 16-374): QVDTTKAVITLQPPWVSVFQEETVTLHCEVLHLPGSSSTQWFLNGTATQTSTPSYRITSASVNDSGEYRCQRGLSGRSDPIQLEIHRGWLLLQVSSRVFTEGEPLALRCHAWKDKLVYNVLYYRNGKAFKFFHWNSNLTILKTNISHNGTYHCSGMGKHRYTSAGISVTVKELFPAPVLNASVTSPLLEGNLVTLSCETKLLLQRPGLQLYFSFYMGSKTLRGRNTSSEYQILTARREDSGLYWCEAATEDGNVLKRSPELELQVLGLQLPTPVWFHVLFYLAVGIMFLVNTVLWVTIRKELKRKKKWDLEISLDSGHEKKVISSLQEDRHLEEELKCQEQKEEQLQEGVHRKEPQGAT
T3 sequence (P08637 17-254 F176V): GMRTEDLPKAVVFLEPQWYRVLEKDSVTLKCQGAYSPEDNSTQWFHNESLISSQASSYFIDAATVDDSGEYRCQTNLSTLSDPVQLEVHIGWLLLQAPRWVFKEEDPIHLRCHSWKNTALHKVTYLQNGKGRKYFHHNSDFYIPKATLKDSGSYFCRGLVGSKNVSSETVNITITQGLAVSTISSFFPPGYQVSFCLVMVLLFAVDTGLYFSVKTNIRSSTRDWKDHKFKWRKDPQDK

B1: c1F6(293)-F8 (c1F6 conjugated to vcMMAF, eight drug units per antibody) (antibody, V domains shown)
VH: QIQLVQSGPEVKKPGETVKISCKASGYTFTNYGMNWVKQAPGKGLKWMGWINTYTGEPTYADAFKGRFAFSLETSASTAYLQINNLKNEDTATYFCARDYGDYGMDYWGQGTSVTVSS
VL: DIVLTQSPASLAVSLGQRATISCRASKSVSTSGYSFMHWYQQKPGQPPKLLIYLASNLESGVPARFSGSGSGTDFTLNIHPVEEEDAATYYCQHSREVPWTFGGGTKLEIKR
modifications: vcMMAF conjugated, loading level of eight drug units per antibody; attachment residues not stated
As for B1, in test [1], the “cytotoxicity IC50 (mean, n = 3), 786-O cells” value turned out to be 1.45 ng/mL; the “cytotoxicity IC50 (mean, n = 3), Caki-1 cells” value came out at 2.17 ng/mL; the “cytotoxicity IC50, 786-O cells” value worked out at 2.4 ng/mL; the “cytotoxicity IC50, Caki-1 cells” value amounted to 1.8 ng/mL.

B2: c1F6 (chimeric derivative of the anti-CD70 murine monoclonal antibody 1F6) (antibody, V domains shown)
VH: B1 VH
VL: B1 VL
notes: also called chimeric 1F6
In the case of B2, the Kd was 560 pM in [2], 300 pM in test [3], 260 pM in test [4] and 1280 pM in test [5].

B3: h1F6 HJLA-F8 (HJLA conjugated to vcMMAF, eight drug units per antibody) (antibody, human IgG1, kappa)
heavy: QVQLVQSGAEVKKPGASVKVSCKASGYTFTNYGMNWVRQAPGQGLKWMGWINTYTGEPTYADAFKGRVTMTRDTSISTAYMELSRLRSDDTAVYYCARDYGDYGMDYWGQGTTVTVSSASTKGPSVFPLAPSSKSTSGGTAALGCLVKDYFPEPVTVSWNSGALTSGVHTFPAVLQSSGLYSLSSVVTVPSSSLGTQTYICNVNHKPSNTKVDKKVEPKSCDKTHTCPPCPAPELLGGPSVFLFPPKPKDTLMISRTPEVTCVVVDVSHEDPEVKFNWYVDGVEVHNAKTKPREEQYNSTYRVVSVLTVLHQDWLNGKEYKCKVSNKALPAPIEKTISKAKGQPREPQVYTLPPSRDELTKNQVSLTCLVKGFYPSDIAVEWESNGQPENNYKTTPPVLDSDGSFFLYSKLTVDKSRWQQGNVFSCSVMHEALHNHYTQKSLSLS
light: DIVMTQSPDSLAVSLGERATINCRASKSVSTSGYSFMHWYQQKPGQPPKLLIYLASNLESGVPDRFSGSGSGTDFTLTISSLQAEDVAVYYCQHSREVPWTFGQGTKVEIKRTVAAPSVFIFPPSDEQLKSGTASVVCLLNNFYPREAKVQWKVDNALQSGNSQESVTEQDSKDSTYSLSSTLTLSKADYEKHKVYACEVTHQGLSSPVTKSFNRGEC
modifications: vcMMAF conjugated, loading level of eight drug units per antibody; attachment residues not stated
In the case of B3, in [1], the “cytotoxicity IC50 (mean, n = 3), 786-O cells” value was 3.03 ng/mL; the “cytotoxicity IC50 (mean, n = 3), Caki-1 cells” value came out at 2.3 ng/mL; the “cytotoxicity IC50, 786-O cells” value came out at 3.4 ng/mL; the “cytotoxicity IC50, Caki-1 cells” value is 2.2 ng/mL.

B4: h1F6 IgG4 vcMMAF(4) antibody drug conjugate (antibody)
heavy: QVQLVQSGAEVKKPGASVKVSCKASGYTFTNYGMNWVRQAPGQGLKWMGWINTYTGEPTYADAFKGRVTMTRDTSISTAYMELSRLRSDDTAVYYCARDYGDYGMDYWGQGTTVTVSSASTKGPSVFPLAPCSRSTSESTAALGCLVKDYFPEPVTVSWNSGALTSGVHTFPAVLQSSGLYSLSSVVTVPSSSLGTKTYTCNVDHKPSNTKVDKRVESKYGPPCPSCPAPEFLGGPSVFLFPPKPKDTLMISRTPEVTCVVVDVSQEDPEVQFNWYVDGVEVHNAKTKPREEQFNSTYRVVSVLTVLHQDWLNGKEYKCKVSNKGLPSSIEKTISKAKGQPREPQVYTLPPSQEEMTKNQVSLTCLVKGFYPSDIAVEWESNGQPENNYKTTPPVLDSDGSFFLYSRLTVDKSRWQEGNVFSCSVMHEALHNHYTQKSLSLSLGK
light: B3 light
modifications: vcMMAF conjugated, mean loading of 4 drugs/antibody; attachment residues not stated
notes: also called h1F6 G4-vcMMAF(4); IgG4-F4
On to B4, for which the “IC50 (read off the curve)” value in test [6] was approximately 10000 pM.

B5: h1F6 IgG4 (IgG4 isotype variant of h1F6 HJLA) (antibody)
heavy: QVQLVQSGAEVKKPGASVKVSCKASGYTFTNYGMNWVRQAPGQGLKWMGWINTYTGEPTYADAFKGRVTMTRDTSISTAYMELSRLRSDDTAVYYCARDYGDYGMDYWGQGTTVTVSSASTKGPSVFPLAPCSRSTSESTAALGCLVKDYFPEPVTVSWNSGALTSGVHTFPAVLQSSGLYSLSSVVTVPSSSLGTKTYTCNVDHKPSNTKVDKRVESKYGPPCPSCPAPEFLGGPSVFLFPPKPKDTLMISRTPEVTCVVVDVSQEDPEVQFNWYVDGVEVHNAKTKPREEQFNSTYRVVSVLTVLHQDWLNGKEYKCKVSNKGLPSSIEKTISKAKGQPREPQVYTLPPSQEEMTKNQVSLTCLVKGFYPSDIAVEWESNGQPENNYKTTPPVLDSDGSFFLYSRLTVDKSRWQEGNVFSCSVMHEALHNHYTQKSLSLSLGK
light: B3 light
notes: also called h1F6 G4
Consider B5, for which the “IC50 (read off the curve)” value in [6] was approximately 30000 pM.

B6: h1F6 IgG1-vcF2 (conjugate of h1F6 IgG1 in Table 8) (antibody)
heavy: not shown
light: B3 light
modifications: vcF2 as printed (taken as vcMMAF, 2 drugs/antibody); attachment residues not stated
notes: Its preparation is not described; also called IgG1 IgG-vcF2
Turning to B6, in test [7], the “IC50 IgG-vcF2 / IC50 IgG” value came to 1.3 ratio.

B7: h1F6 IgG1 E269C (antibody)
heavy: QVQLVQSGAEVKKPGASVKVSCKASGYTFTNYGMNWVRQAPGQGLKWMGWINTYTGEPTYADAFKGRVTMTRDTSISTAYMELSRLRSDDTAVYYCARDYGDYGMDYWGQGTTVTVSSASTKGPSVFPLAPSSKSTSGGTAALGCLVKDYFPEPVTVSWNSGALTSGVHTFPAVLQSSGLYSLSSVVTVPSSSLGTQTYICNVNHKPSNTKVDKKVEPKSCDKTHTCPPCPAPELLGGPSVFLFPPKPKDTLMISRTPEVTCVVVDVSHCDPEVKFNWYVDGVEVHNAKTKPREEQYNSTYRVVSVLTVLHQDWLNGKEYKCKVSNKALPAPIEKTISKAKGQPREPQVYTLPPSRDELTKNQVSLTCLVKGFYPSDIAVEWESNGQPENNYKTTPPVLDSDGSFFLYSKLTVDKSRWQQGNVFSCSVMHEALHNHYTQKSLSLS
light: B3 light
On to B7, for which the Kd in test [8] worked out at 800 pM.

B8: h1F6 IgG1 D265C (antibody)
heavy: not shown
light: B3 light
B8: the Kd in test [8] was 1100 pM.

B9: h1F6 IgG1 D265C-vcF2 (conjugate in Table 8) (antibody)
heavy: not shown
light: B3 light
modifications: vcF2 as printed (taken as vcMMAF, 2 drugs/antibody); attachment residues not stated
notes: Position 265 is Fc (EU) numbering; also called IgG1 D265C IgG-vcF2
Turning to B9, the “IC50 IgG-vcF2 / IC50 IgG” value in test [7] was found to be 0.9 ratio.

B10: h1F6 IgG1 S239C conjugated to vcMMAF (average of 2 drugs/antibody) (antibody)
heavy: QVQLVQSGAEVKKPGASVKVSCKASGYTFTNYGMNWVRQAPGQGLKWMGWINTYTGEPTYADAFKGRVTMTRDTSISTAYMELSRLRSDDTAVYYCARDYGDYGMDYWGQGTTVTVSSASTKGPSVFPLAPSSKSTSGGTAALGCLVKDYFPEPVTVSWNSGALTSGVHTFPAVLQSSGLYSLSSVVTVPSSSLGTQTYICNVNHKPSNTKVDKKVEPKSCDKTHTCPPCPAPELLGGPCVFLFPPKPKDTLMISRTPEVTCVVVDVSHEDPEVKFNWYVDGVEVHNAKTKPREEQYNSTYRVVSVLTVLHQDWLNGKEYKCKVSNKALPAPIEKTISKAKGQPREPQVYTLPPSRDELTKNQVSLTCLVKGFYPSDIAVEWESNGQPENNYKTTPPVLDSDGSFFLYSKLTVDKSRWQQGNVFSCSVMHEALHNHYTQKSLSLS
light: B3 light
modifications: vcMMAF conjugated, average of 2 drugs/antibody; attachment residues not stated for the material tested
notes: also called IgG1 S239C vcMMAF; IgG1 S239C IgG-vcF2
Regarding B10, the “IC50 IgG-vcF2 / IC50 IgG” value in test [7] stood at 1.1 ratio. Further, in test [9], the binding result was “binds”. Further, in test [10], the “IC50 (read off the curve)” value is approximately 8000 pM.

B11: h1F6 IgG1 A327C-vcF2 (conjugate in Table 8) (antibody)
heavy: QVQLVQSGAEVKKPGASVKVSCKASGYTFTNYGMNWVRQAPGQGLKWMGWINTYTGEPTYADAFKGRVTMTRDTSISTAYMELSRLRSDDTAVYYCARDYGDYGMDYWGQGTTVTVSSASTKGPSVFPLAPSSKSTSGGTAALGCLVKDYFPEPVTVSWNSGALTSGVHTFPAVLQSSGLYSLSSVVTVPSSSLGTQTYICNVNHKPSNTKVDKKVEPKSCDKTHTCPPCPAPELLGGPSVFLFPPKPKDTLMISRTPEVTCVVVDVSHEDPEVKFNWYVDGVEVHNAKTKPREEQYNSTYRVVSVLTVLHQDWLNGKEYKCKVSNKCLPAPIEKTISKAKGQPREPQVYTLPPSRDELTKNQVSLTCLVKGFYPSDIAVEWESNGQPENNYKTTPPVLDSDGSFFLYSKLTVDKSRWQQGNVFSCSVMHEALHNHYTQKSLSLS
light: B3 light
modifications: vcF2 as printed (taken as vcMMAF, 2 drugs/antibody); attachment residues not stated
notes: Position 327 is Fc (EU) numbering; also called IgG1 A327C IgG-vcF2
With B11, in [7], the “IC50 IgG-vcF2 / IC50 IgG” value is 1.1 ratio.

B12: h1F6 IgG1 E269C-vcF2 (conjugate in Table 8) (antibody)
heavy: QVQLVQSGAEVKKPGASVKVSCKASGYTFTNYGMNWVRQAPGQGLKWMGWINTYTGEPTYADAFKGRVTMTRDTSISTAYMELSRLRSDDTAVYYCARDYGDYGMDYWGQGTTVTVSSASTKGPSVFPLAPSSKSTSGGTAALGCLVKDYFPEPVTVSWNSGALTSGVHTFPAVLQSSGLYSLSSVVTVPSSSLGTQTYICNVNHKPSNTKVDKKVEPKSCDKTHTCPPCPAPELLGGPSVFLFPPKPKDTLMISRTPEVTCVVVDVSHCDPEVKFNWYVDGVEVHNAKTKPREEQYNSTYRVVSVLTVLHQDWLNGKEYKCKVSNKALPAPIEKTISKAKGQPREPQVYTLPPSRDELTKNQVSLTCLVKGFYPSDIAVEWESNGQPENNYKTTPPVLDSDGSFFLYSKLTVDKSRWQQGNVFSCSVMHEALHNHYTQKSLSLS
light: B3 light
modifications: vcF2 as printed (taken as vcMMAF, 2 drugs/antibody); attachment residues not stated
notes: Position 269 is Fc (EU) numbering; also called IgG1 E269C IgG-vcF2
On to B12, for which the “IC50 IgG-vcF2 / IC50 IgG” value in [7] was determined as 0.9 ratio.

B13: h1F6 IgG1 S239C (antibody)
heavy: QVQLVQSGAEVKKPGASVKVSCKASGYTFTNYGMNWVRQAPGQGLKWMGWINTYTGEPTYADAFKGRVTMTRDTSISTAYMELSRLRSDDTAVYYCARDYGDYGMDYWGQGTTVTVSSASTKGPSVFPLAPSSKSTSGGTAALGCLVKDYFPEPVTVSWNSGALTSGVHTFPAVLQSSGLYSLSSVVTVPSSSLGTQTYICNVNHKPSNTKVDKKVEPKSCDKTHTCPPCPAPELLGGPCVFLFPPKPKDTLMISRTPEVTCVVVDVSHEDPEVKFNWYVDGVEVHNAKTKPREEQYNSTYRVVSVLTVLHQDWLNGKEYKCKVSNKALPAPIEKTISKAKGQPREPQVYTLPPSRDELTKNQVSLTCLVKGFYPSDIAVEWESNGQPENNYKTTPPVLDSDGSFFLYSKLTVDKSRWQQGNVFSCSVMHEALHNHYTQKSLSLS
light: B3 light
With B13, the Kd in test [8] is 1000 pM. The binding result in [9] is on record as “binds”. In addition, the “IC50 (read off the curve)” value in test [10] is approximately 10000 pM.

B14: h1F6 IgG1 A327C (antibody)
heavy: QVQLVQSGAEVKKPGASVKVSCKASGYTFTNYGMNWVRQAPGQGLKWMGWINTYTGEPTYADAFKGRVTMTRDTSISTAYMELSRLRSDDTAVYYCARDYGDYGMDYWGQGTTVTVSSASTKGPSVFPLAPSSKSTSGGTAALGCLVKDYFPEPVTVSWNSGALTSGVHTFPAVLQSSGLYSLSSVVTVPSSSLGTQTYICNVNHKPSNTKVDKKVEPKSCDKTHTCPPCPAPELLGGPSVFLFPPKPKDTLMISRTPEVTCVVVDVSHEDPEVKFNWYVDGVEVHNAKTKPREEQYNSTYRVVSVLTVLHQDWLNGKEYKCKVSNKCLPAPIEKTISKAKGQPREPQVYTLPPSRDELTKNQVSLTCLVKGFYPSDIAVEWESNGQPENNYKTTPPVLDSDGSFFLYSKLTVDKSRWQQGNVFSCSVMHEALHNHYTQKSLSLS
light: B3 light
In the case of B14, in [8], the Kd came to 500 pM.

B15: h1F6 HMLA-F8 (humanized 1F6 derivative HMLA, hVHM and hVLA, conjugated to vcMMAF, eight drug units per antibody) (antibody, human IgG1, kappa, V domains shown)
VH: QVQLVQSGAEVKKPGASVKVSCKASGYTFTNYGMNWVRQAPGQGLKWMGWINTYTGEPTYADAFKGRFAFSLDTSTSTAYMELRSLRSDDTAVYYCARDYGDYGMDYWGQGTTVTVSS
VL: DIVMTQSPDSLAVSLGERATINCRASKSVSTSGYSFMHWYQQKPGQPPKLLIYLASNLESGVPDRFSGSGSGTDFTLTISSLQAEDVAVYYCQHSREVPWTFGQGTKVEIKR
modifications: vcMMAF conjugated, loading level of eight drug units per antibody; attachment residues not stated
With B15, in [1], the “cytotoxicity IC50 (mean, n = 3), 786-O cells” value turned out to be 2.03 ng/mL; the “cytotoxicity IC50 (mean, n = 3), Caki-1 cells” value was found to be 2.07 ng/mL; the “cytotoxicity IC50, 786-O cells” value was determined as 2.8 ng/mL; the “cytotoxicity IC50, Caki-1 cells” value amounted to 1.8 ng/mL.

B16: h1F6 HELA-F8 (humanized 1F6 derivative HELA, hVHE and hVLA, conjugated to vcMMAF, eight drug units per antibody) (antibody, human IgG1, kappa, V domains shown)
VH: B15 VH with K46E, F68V, A69T, F70M, S71T, L72R, T76I, R84S, S85R
VL: B15 VL
modifications: vcMMAF conjugated, loading level of eight drug units per antibody; attachment residues not stated
In the case of B16, in test [1], the “cytotoxicity IC50 (mean, n = 3), 786-O cells” value stood at 3.9 ng/mL; the “cytotoxicity IC50 (mean, n = 3), Caki-1 cells” value came to 2.87 ng/mL; the “cytotoxicity IC50, 786-O cells” value was 5.2 ng/mL; the “cytotoxicity IC50, Caki-1 cells” value worked out at 3.4 ng/mL.

B17: h1F6 HHLA-F8 (HHLA conjugated to vcMMAF, eight drug units per antibody) (antibody, human IgG1, kappa, V domains shown)
VH: B15 VH with K46E, M81L, E82Q, L83I, R84N
VL: B15 VL
modifications: vcMMAF conjugated, loading level of eight drug units per antibody; attachment residues not stated
Take B17: in test [1], the “cytotoxicity IC50 (mean, n = 3), 786-O cells” value was 1.93 ng/mL; the “cytotoxicity IC50 (mean, n = 3), Caki-1 cells” value came out at 1.87 ng/mL; the “cytotoxicity IC50, 786-O cells” value is 2.3 ng/mL; the “cytotoxicity IC50, Caki-1 cells” value came to 1.4 ng/mL.

B18: humanized 1F6 antibody derivative HDLA (hVHD and hVLA) (antibody, human IgG1, kappa, V domains shown)
VH: B15 VH with K46E, F68V, A69T, F70M, S71T, L72T
VL: B15 VL
notes: Heavy chain is hVH-D + hIgG1 constant domain; also called h1F6 HDLA
Consider B18, for which the Kd in test [2] was determined as 550 pM; in [3] it was 1440 pM; in [4], 860 pM; in test [5], 1290 pM.

B19: humanized 1F6 antibody derivative HHLA (hVHH and hVLA) (antibody, V domains shown)
VH: B15 VH with K46E, M81L, E82Q, L83I, R84N
VL: B15 VL
notes: Heavy chain is hVH-H + hIgG1 constant domain; also called h1F6 HHLA
Take B19: the Kd in [2] was 280 pM; in [3] it was 290 pM; in test [4] it was 150 pM; in [5], 1220 pM.
